Measurements reported in patent US8969060B2, “Modified glucose dehydrogenase” (Ikeda Food Research Co., Ltd., priority 2011, dated 2015).
Positions count from the first letter of the chain named. Names may count otherwise. “And” between values parts separate entries of the source, which are not always exact repeats. Equal entries are not always repeated.

B1: D343N + S490C: modified GLD: SEQ ID NO: 1 with substitutions D343N, S490C (protein, listed as Aspergillus terreus)
chain: MLGKLSFLSALSLAVAAPLSNSTSAKYDYIVIGGGTSGLAVANRLSEDPNVNVLILEAGGSVWNNPNVTNVDGYGLAFGSDIDWQYQSVNQPYGGNLSQVLRAGKALGGTSTINGMAYTRAEDVQIDAWETIGNTGWTWKNLFPYYRKSENFTVPTKSQTSLGASYEAGAHGHEGPLDVAFTQIESNNLTTYLNRTFQGMGLPWTEDVNGGKMRGFNLYPSTVNLEEYVREDAARAYYWPYKSRPNLHVLLNTFANRIVWDGEAHDGHITASGVEITSRNGTVRVINAEKEVIVSAGALKSPAILELSGIGNPSVLDKHNIPVKVNLPTVGENLQDQVNSHMNASGNTSISGTKAVSYPDVYDVFGDEAESVAKQIRANLKQYAADTAKANGNIMKAADLERLFEVQYDLIFKGRVPIAEVLNYPGSATSVFAEFWALLPFARGSVHIGSSNPAEFPVINPNYFMLDWDAKSYVAVAKYIRRSFESYPLCSIVKESTPGYDVIPRNASEQSWKEWVFDKNYRSNFHPVGTAAMMPREIGGVVDERLNVYGTTNVRVVDASVLPFQVCGHLVSTLYAVAERAADLIKADAGRR
modifications: SIGNAL (1)..(19)
B2: M342L + K354N: modified GLD: SEQ ID NO: 1 with substitutions M342L, K354N (protein, listed as Aspergillus terreus)
chain: B1 chain with M342L, N343D, K354N, C490S
modifications: SIGNAL (1)..(19)
B3: H341R + G499S: modified GLD: SEQ ID NO: 1 with substitutions H341R, G499S (protein, listed as Aspergillus terreus)
chain: B1 chain with H341R, N343D, C490S, G499S
modifications: SIGNAL (1)..(19)
B4: L250V + S340G + D399N: modified GLD: SEQ ID NO: 1 with substitutions L250V, S340G, D399N (protein, listed as Aspergillus terreus)
chain: B1 chain with L250V, S340G, N343D, D399N, C490S
modifications: SIGNAL (1)..(19)
B5: G426S + A578V: modified GLD: SEQ ID NO: 1 with substitutions G426S, A578V (protein, listed as Aspergillus terreus)
chain: B1 chain with N343D, G426S, C490S, A578V
modifications: SIGNAL (1)..(19)
B6: V338 + Q382H: modified GLD: SEQ ID NO: 1 with substitutions at V338 and Q382H (protein, listed as Aspergillus terreus)
chain: B1 chain with V338M, N343D, Q382H, C490S
modifications: SIGNAL (1)..(19)
B7: H341L: modified GLD: SEQ ID NO: 1 with substitution H341L (protein, listed as Aspergillus terreus)
chain: B1 chain with H341L, N343D, C490S
modifications: SIGNAL (1)..(19)
B8: V431M: modified GLD: SEQ ID NO: 1 with substitution V431M (protein, listed as Aspergillus terreus)
chain: B1 chain with N343D, V431M, C490S
modifications: SIGNAL (1)..(19)
B9: S272T + A298V + A369T: modified GLD: SEQ ID NO: 1 with substitutions S272T, A298V, A369T (protein, listed as Aspergillus terreus)
chain: B1 chain with S272T, A298V, N343D, A369T, C490S
modifications: SIGNAL (1)..(19)
B10: G352E: modified GLD: SEQ ID NO: 1 with substitution G352E (protein, listed as Aspergillus terreus)
chain: B1 chain with N343D, G352E, C490S
modifications: SIGNAL (1)..(19)
B11: S340N: modified GLD: SEQ ID NO: 1 with substitution S340N (protein, listed as Aspergillus terreus)
chain: B1 chain with S340N, N343D, C490S
modifications: SIGNAL (1)..(19)
B12: H341F: modified GLD: SEQ ID NO: 1 with substitution H341F (protein, listed as Aspergillus terreus)
chain: B1 chain with H341F, N343D, C490S
modifications: SIGNAL (1)..(19)
B13: H341G: modified GLD: SEQ ID NO: 1 with substitution H341G (protein, listed as Aspergillus terreus)
chain: B1 chain with H341G, N343D, C490S
modifications: SIGNAL (1)..(19)
B14: H341A: modified GLD: SEQ ID NO: 1 with substitution H341A (protein, listed as Aspergillus terreus)
chain: B1 chain with H341A, N343D, C490S
modifications: SIGNAL (1)..(19)
B15: H341I: modified GLD: SEQ ID NO: 1 with substitution H341I (protein, listed as Aspergillus terreus)
chain: B1 chain with H341I, N343D, C490S
modifications: SIGNAL (1)..(19)
B16: H341K: modified GLD: SEQ ID NO: 1 with substitution H341K (protein, listed as Aspergillus terreus)
chain: B1 chain with H341K, N343D, C490S
modifications: SIGNAL (1)..(19)
B17: H341C: modified GLD: SEQ ID NO: 1 with substitution H341C (protein, listed as Aspergillus terreus)
chain: B1 chain with H341C, N343D, C490S
modifications: SIGNAL (1)..(19)
B18: S340W: modified GLD: SEQ ID NO: 1 with substitution S340W (protein, listed as Aspergillus terreus)
chain: B1 chain with S340W, N343D, C490S
modifications: SIGNAL (1)..(19)
B19: H341E: modified GLD: SEQ ID NO: 1 with substitution H341E (protein, listed as Aspergillus terreus)
chain: B1 chain with H341E, N343D, C490S
modifications: SIGNAL (1)..(19)
B20: S340V: modified GLD: SEQ ID NO: 1 with substitution S340V (protein, listed as Aspergillus terreus)
chain: B1 chain with S340V, N343D, C490S
modifications: SIGNAL (1)..(19)
B21: S340G: modified GLD: SEQ ID NO: 1 with substitution S340G (protein, listed as Aspergillus terreus)
chain: B1 chain with S340G, N343D, C490S
modifications: SIGNAL (1)..(19)
B22: H341D: modified GLD: SEQ ID NO: 1 with substitution H341D (protein, listed as Aspergillus terreus)
chain: B1 chain with H341D, N343D, C490S
modifications: SIGNAL (1)..(19)
B23: H341M: modified GLD: SEQ ID NO: 1 with substitution H341M (protein, listed as Aspergillus terreus)
chain: B1 chain with H341M, N343D, C490S
modifications: SIGNAL (1)..(19)

Assay: Relative enzymatic activity of GLD (DCIP/1-m-PMS, plate reader, yeast culture supernatant) with 1,10-phenanthroline present
Type: biochemical
Details: random-mutation mutants, sample value with inhibitor at 1 mM / blank value, inhibitor not named in Table 1
Protocol: (§1) The susceptibility defined in the present specification is evaluated in terms of a relative activity that is determined in a system wherein the inhibitor coexists or not. The relative activity is derived from a relative value (%) of an enzymatic activity (a sample value) obtained with the addition of the inhibitor in the determination of the enzymatic activity described in the present specification as compared with an enzymatic activity (a blank value) as “100%” obtained without the addition of the inhibitor in the same determination. Thus, the higher the relative activity is, the less the susceptibility to the inhibitor is (or the more the susceptibility to the inhibitor is reduced), vice versa.
(§2) The enzymatic activity is determined in the following manner in Examples 3 and 6 wherein a plate reader (Japan Molecular Device Corporation, SpectraMax Plus384) is used. Thus, culture supernatant that had been diluted in advance with an appropriate magnification is added to a 96-well microplate with an amount of 100 μl per well. A reagent for the determination of the enzymatic activity comprising phosphate buffer (pH 7.0), 1.0 M D-glucose, 3 mM DCIP, 3 mM 1-m-PMS and methanol with a volume ratio of 0.1:1:0.14:0.2:0.06 is added to the 96-well microplate with an amount of 100 μl per well, and a change in the absorbance of DCIP at 600 nm (ΔABS/min) is then determined. The enzymatic activity can be calculated by conversion in proportion to a change in the absorbance of an enzyme solution for which the enzymatic activity has already been known by the above-mentioned activity determination procedure using the spectrophotometer.
(§3) In the following examples, a value of the enzymatic activity determined by the spectrometer or plate reader using the above reagent composition is considered as a blank value. On the other hand, a sample value is determined using a methanol solution comprising the inhibitor such as 1,10-phenanthroline or proflavin hydrochloride at a final concentration of 1 mM instead of the methanol. Enzymatic activity (unit/mL)=(−ΔABS/16.3)×3.0/0.05×(Dilution ratio of enzyme) [Equation 1]
Into each well of a 96-well microplate (manufactured by Nunc, Inc.), a YPD medium containing 125 μL of 1.0% (w/v) yeast extract (manufactured by BD), 2.0% (w/v) tryptone (manufactured by BD), 2.0% (w/v) glucose (manufactured by Wako Pure Chemical Industries, Ltd.) was dispensed, and the transformant colonies obtained in Example 2 were inoculated thereinto one by one.
After shaking culture at 30° C. and 1,000 rpm for 24 hours, the culture mixture was centrifuged and the supernatant was collected.
According to the above-mentioned method for the determination of enzymatic activity, a blank value and a sample value were determined using a plate reader, and the relative activity (%) was obtained by dividing the sample value by the blank value.
With B1 the “Relative Activity” value was 61.8% and 71.1%.
With B2 the “Relative Activity” value was 69.8%.
In the case of B3, the “Relative Activity” value is reported as 71.9%.
For B4, the “Relative Activity” value was 43.4%.
With B5 the “Relative Activity” value was 65.7%.
For B6, the “Relative Activity” value was 60.0%.
In the case of B7, the “Relative Activity” value is reported as 69.7%.
In the case of B8, the “Relative Activity” value is reported as 44.8%.
With B9 the “Relative Activity” value was 68.6%.
In the case of B10, the “Relative Activity” value is reported as 70.4%.

Same assay, conditions: site-specific mutants, inhibitor final concentration 1 mM
With B11 the “Relative Activity [%] 1,10-Phenanthroline” value was 82.0%.
For B12, the “Relative Activity [%] 1,10-Phenanthroline” value was 97.1%.
With B7 the “Relative Activity [%] 1,10-Phenanthroline” value was 92.2%.
For B13, the “Relative Activity [%] 1,10-Phenanthroline” value was 93.8%.
In the case of B14, the “Relative Activity [%] 1,10-Phenanthroline” value is reported as 95.1%.
In the case of B15, the “Relative Activity [%] 1,10-Phenanthroline” value is reported as 97.4%.
In the case of B16, the “Relative Activity [%] 1,10-Phenanthroline” value is reported as 99.2%.
With B17 the “Relative Activity [%] 1,10-Phenanthroline” value was 95.4%.
For B18, the “Relative Activity [%] 1,10-Phenanthroline” value was 97.7%.
For B19, the “Relative Activity [%] 1,10-Phenanthroline” value was 88.4%.
With B20 the “Relative Activity [%] 1,10-Phenanthroline” value was 84.2%.
In the case of B21, the “Relative Activity [%] 1,10-Phenanthroline” value is reported as 54.6%.
With B10 the “Relative Activity [%] 1,10-Phenanthroline” value was 91.7%.
For B22, the “Relative Activity [%] 1,10-Phenanthroline” value was 90.0%.
With B23 the “Relative Activity [%] 1,10-Phenanthroline” value was 95.4%.

Assay: Relative enzymatic activity of GLD (DCIP/1-m-PMS, plate reader, yeast culture supernatant) with proflavin hydrochloride present
Type: biochemical
Details: site-specific mutants, inhibitor final concentration 1 mM
Protocol: as §1, §2, §3
In the case of B11, the “Relative Activity [%] Proflavin hydrochloride” value is reported as 49.9%.
With B12 the “Relative Activity [%] Proflavin hydrochloride” value was 67.5%.
In the case of B7, the “Relative Activity [%] Proflavin hydrochloride” value is reported as 66.9%.
In the case of B13, the “Relative Activity [%] Proflavin hydrochloride” value is reported as 76.9%.
For B14, the “Relative Activity [%] Proflavin hydrochloride” value was 75.8%.
In the case of B15, the “Relative Activity [%] Proflavin hydrochloride” value is reported as 64.4%.
For B16, the “Relative Activity [%] Proflavin hydrochloride” value was 61.3%.
With B17 the “Relative Activity [%] Proflavin hydrochloride” value was 67.7%.
In the case of B18, the “Relative Activity [%] Proflavin hydrochloride” value is reported as 75.7%.
With B19 the “Relative Activity [%] Proflavin hydrochloride” value was 25.2%.
With B20 the “Relative Activity [%] Proflavin hydrochloride” value was 54.9%.
For B21, the “Relative Activity [%] Proflavin hydrochloride” value was 49.5%.
With B10 the “Relative Activity [%] Proflavin hydrochloride” value was 36.3%.
For B22, the “Relative Activity [%] Proflavin hydrochloride” value was 64.5%.
For B23, the “Relative Activity [%] Proflavin hydrochloride” value was 71.4%.
